Starred links: 1 amine or outer side, 2 acyl side, 3 side chain; linkers in the order of their positions; H or OH if unused. Non-standard residues stand in square brackets, D forms with d. Groups on a side chain read outwards from the residue. No end group written: not given here. *: point of attachment. C20 diacid = O=C(O)CCCCCCCCCCCCCCCCCCC(=O)*; Phe(4-CN) = N#Cc1ccc(C[C@H](N)C(=O)O)cc1; αMePhe(2-F) = C[C@](N)(Cc1ccccc1F)C(=O)O; γGlu = O=C(O)[C@H](CCC(=O)[*:2])N[*:1]; AEEA = NCCOCCOCC(=O)O; Aib = CC(C)(N)C(=O)O
What was measured:
Experiment in all cases: cell-based or functional assay
[1] = molecular target: T1, human GIP receptor (human) (UniProt P48546)
T1 sequence (looked up): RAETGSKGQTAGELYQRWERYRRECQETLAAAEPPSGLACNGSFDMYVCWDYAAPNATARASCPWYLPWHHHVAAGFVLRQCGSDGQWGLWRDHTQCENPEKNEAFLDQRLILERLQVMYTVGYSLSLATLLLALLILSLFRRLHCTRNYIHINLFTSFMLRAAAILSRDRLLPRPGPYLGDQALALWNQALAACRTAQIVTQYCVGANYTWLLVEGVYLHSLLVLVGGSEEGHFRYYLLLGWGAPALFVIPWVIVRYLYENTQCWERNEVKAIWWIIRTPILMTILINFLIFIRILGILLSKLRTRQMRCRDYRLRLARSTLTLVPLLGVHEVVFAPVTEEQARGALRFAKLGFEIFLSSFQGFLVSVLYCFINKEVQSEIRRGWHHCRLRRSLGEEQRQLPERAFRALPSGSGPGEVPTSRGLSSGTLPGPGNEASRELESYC

hGLP-1R = hGLP-1R (Homo sapiens, UniProt P43220)
[2] = molecular target: human glucagon receptor (human) (UniProt P47871)
Chain of human glucagon receptor (human) (P47871 26-477): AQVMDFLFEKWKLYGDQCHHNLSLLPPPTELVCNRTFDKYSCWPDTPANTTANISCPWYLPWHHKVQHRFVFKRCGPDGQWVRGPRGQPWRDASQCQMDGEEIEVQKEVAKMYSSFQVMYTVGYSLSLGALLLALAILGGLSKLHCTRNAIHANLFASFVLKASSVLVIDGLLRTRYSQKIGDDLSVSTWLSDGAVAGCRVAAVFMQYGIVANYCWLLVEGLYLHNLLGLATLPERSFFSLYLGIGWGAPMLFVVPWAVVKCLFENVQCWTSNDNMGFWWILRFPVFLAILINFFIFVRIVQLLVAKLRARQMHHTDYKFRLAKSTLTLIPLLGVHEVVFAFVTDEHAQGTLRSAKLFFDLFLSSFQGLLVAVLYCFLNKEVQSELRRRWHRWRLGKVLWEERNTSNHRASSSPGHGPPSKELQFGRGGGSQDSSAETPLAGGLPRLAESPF

Chain of hGLP-1R (P43220 24-463): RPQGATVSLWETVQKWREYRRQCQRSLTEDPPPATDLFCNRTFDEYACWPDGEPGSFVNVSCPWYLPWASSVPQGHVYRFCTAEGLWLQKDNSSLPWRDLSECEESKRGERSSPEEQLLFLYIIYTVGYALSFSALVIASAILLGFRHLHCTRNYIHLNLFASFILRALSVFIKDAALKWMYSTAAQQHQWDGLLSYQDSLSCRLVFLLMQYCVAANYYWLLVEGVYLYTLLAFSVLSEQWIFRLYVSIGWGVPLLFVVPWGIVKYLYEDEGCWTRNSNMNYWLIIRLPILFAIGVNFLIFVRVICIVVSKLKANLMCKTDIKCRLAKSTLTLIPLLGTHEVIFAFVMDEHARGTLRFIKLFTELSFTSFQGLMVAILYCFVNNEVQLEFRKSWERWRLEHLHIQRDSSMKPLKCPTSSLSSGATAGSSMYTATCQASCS

Binder | Relative cAMP EC50 [1] [nM] | cAMP Rel EC50, nM (1% HSA) [1] [nM] | Relative cAMP EC50 (hGLP-1R) [nM] | cAMP Rel EC50, nM (1% HSA) (hGLP-1R) [nM] | Relative cAMP EC50 [2] [nM] | cAMP Rel EC50, nM (1% HSA) [2] [nM] | cAMP Rel EC50 (in the presence of 1% HSA) [1] [nM] | cAMP Rel EC50 (in the presence of 1% HSA) (hGLP-1R) [nM] | cAMP Rel EC50 (in the presence of 1% HSA) [2] [nM]
YXQGTXTSDYSILLDKKAQXAFIEYLLEGGPSSGAPPPE (not fully specified; synthetic construct; SITE 2: note = 2-Aminoisobutyric Acid; SITE 6: note = alpha-methyl-2-fluoro-L-phenylalanine; SITE 17: note = Lysine is chemically modified through conjugation of the epsilon-amino group of the Lysine side chain with (2-[2-(2-Amino-ethoxy)-ethoxy]-acetyl)2-(gamma-Glu)-CO-(CH2 )18) [Example 386] | 0.0156 | 5.62 | 0.278 | 98.6 | 1.7 | 734 | – | – | –
YXQGTFTSDYXIXLDKKAQXAFIEYLIEGGPSSGAPPPS (synthetic construct; SITE 2: note = 2-Aminoisobutyric Acid; SITE 11: note = alpha-methyl-L-serine; SITE 13: note = alpha-methyl-leucine; SITE 17: note = Lysine is chemically modified through conjugation of the epsilon-amino group of the Lysine side chain with (2-[2-(2-Amino-ethoxy)-ethoxy]-acetyl)2-) [Example 382] | 0.0368 | 17.7 | 0.291 | 61.5 | 3.72 | 1050 | – | – | –
YXQGTXTSDYSILLDKKAQXAFIEYLLEGGPSSGAPPPS (not fully specified; synthetic construct; SITE 2: note = 2-Aminoisobutyric Acid; SITE 6: note = alpha-methyl-2-fluoro-L-phenylalanine; SITE 17: note = Lysine is chemically modified through conjugation of the epsilon-amino group of the Lysine side chain with (2-[2-(2-Amino-ethoxy)-ethoxy]-acetyl)2-(gamma-Glu)-CO-(CH2 )18) [Example 385] | 0.0141 | 4.03 | 0.235 | 86.1 | 1 | 700 | – | – | –
YXQGTXTSDYSILLDKKAQXAFIEYLEEGGPSSGAPPPS (not fully specified; synthetic construct; SITE 2: note = 2-Aminoisobutyric Acid; SITE 6: note = alpha-methyl-2-fluoro-L-phenylalanine; SITE 17: note = Lysine is chemically modified through conjugation of the epsilon-amino group of the Lysine side chain with (2-[2-(2-Amino-ethoxy)-ethoxy]-acetyl)-(gamma-Glu)-CO-(CH2) 16-) [Example 387] | 0.0276 | 5.64 | 0.255 | 26.5 | 2.14 | 184 | – | – | –
Y[Aib]QGT[αMePhe(2-F)]TSD[Phe(4-CN)]SKLLDKIAQK([AEEA-γGlu-C20 diacid])AFIEYLIEGGPSSGAPPPSGS-NH2 [Example 363] | 0.375 | 91.8 | 1.47 | 217 | 13.6 | 4080 | – | – | –
YXQGTXTSDYSIXLDKKAAXAFIEYLIETGPSSGAPPPSEG (synthetic construct; SITE 2: note = 2-Aminoisobutyric Acid; SITE 6: note = alpha-methyl-2-fluoro-L-phenylalanine; SITE 13: note = alpha-methyl-leucine; SITE 17: note = Lysine is chemically modified through conjugation of the epsilon-amino group of the Lysine side chain with (2-[2-(2-Amino-ethoxy)-et)) [Example 383] | 0.0406 | 32.3 | 0.258 | 79.1 | 1.27 | 530 | – | – | –
Y[Aib]QGT[αMePhe(2-F)]TSDYSKLLDKIAQKAFIEYLIEGGPSSGAPPPEGE-NH2 (not fully specified (residue 20)) [Example 357] | 0.077 | 42.9 | 0.625 | 248 | 6.21 | 1810 | – | – | –
YXQGTFTSDFSKXLDKKAQXAFIEYLLEAGPSSGAPPPGEG (not fully specified; synthetic construct; SITE 2: note = 2-Aminoisobutyric Acid; SITE 13: note = alpha-methyl-leucine; SITE 17: note = Lysine is chemically modified through conjugation of the epsilon-amino group of the Lysine side chain with (2-[2-(2-Amino-ethoxy)-ethoxy]-acetyl)-(gamma-Glu)-CO-(CH2) 18-CO2H; SITE 20: n) [Example 34] | 0.122 | – | 1.16 | – | 3.47 | – | 44.2 | 242 | 855
Y[Aib]QGT[αMePhe(2-F)]TSDYSKLLDKIAQKAFIEYLIEGGPSSGAPPPSGE-NH2 (not fully specified (residue 20)) [Example 356] | 0.0613 | 19.2 | 0.599 | 206 | 4.76 | 2680 | – | – | –
YXQGTXTSDYXIXLDXKAQXXFIEXLLEGGPSSGEPPPS (synthetic construct; SITE 2: note = 2-Aminoisobutyric Acid; SITE 6: note = alpha-methyl-2-fluoro-L-phenylalanine; SITE 11: note = alpha-methyl-L-serine; SITE 13: note = alpha-methyl-leucine; SITE 16: note = L-ornithine; SITE 17: note = Lysine is chemically modified through conjugation of the epsilon) [Example 368] | 0.0121 | 2.62 | 0.242 | 37.4 | 0.481 | 111 | – | – | –
YXQGTXTSDYXIXLDXKAQXXFIEYLLEGGPSSGAPPPS (synthetic construct; SITE 2: note = 2-Aminoisobutyric Acid; SITE 6: note = alpha-methyl-2-fluoro-L-phenylalanine; SITE 11: note = alpha-methyl-L-serine; SITE 13: note = alpha-methyl-leucine; SITE 16: note = L-ornithine; SITE 17: note = Lysine is chemically modified through conjugation of the epsilon) [Example 384] | 0.0152 | 3.63 | 0.133 | 19.3 | 5.77 | 1730 | – | – | –
HXQGTXTSDYXIXLDXKAQXAFIEYLLEGGPSSGEPPPE (synthetic construct; SITE 2: note = 2-Aminoisobutyric Acid; SITE 6: note = alpha-methyl-2-fluoro-L-phenylalanine; SITE 11: note = alpha-methyl-L-serine; SITE 13: note = alpha-methyl-leucine; SITE 16: note = L-ornithine; SITE 17: note = Lysine is chemically modified through conjugation of the epsilon) [Example 381] | 0.0156 | 7.01 | 0.157 | 24.5 | 1.39 | 176 | – | – | –
YXQGTXTSDXXIXLDXKAQXXFIEXLLEGGPSSXEPPPE (synthetic construct; SITE 2: note = 2-Aminoisobutyric Acid; SITE 6: note = alpha-methyl-2-fluoro-L-phenylalanine; SITE 10: note = 3-(4-Pyridyl)-L-alanine; SITE 11: note = alpha-methyl-L-serine; SITE 13: note = alpha-methyl-leucine; SITE 16: note = L-ornithine; SITE 17: note = Lysine is chemically mo) [Example 380] | 0.0346 | 7.77 | 0.354 | 30.6 | 1.17 | 150 | – | – | –
YXQGTXTSDXXIXLDXKAQXXFIEXLLEGGPSSGEPPPE (synthetic construct; SITE 2: note = 2-Aminoisobutyric Acid; SITE 6: note = alpha-methyl-2-fluoro-L-phenylalanine; SITE 10: note = 3-(4-Pyridyl)-L-alanine; SITE 11: note = alpha-methyl-L-serine; SITE 13: note = alpha-methyl-leucine; SITE 16: note = L-ornithine; SITE 17: note = Lysine is chemically mo) [Example 377] | 0.0377 | 11.1 | 0.367 | 29.4 | 1.36 | 163 | – | – | –
YXQGTXTSDXXIXLDXKAQXXFIEXLIEGGPSSGEPPPE (synthetic construct; SITE 2: note = 2-Aminoisobutyric Acid; SITE 6: note = alpha-methyl-2-fluoro-L-phenylalanine; SITE 10: note = 3-(4-Pyridyl)-L-alanine; SITE 11: note = alpha-methyl-L-serine; SITE 13: note = alpha-methyl-leucine; SITE 16: note = L-ornithine; SITE 17: note = Lysine is chemically mo) [Example 378] | 0.0213 | 2.15 | 0.251 | 18.8 | 1.45 | 176 | – | – | –
YXQGTXTSDXSIXLDXKAQXXFIEXLLEGGPSSXEPPPE (synthetic construct; SITE 2: note = 2-Aminoisobutyric Acid; SITE 6: note = alpha-methyl-2-fluoro-L-phenylalanine; SITE 10: note = 3-(4-Pyridyl)-L-alanine; SITE 13: note = alpha-methyl-leucine; SITE 16: note = L-ornithine; SITE 17: note = Lysine is chemically modified through conjugation of the epsil) [Example 373] | 0.0183 | 1.97 | 0.392 | 54.5 | 4.48 | 666 | – | – | –
YXQGTXTSDXXIXLDXKAQXXFIEXLIEGGPSSGEPPPS (synthetic construct; SITE 2: note = 2-Aminoisobutyric Acid; SITE 6: note = alpha-methyl-2-fluoro-L-phenylalanine; SITE 10: note = 3-(4-Pyridyl)-L-alanine; SITE 11: note = alpha-methyl-L-serine; SITE 13: note = alpha-methyl-leucine; SITE 16: note = L-ornithine; SITE 17: note = Lysine is chemically mo) [Example 375] | 0.0165 | 1.78 | 0.299 | 18 | 1.32 | 137 | – | – | –
Y[Aib]QGT[αMePhe(2-F)]TSD[Phe(4-CN)]SKLLDKIAQK([AEEA-γGlu-C20 diacid])AFIEYLIEGGPSSGEPPPSGS-NH2 [Example 364] | 0.457 | 101 | 1.1 | 260 | 10.2 | 3190 | – | – | –
Y[Aib]QGT[αMePhe(2-F)]TSDYSKILDKIAQKAFIQYLIEGGPSSGEPPPSEG-NH2 (not fully specified (residue 20)) [Example 354] | 0.134 | 23.8 | 1.21 | 175 | 7.91 | 1440 | – | – | –
Y[Aib]QGT[αMePhe(2-F)]TSDYSKILDKIAQKAFIEYLIEGGPSSGAPPPSEG-NH2 (not fully specified (residue 20)) [Example 355] | 0.0811 | 33.2 | 1.01 | 351 | 5.87 | 3430 | – | – | –
